B1: TR01H034-E22Hh/none-Hi-Kn010G3/L0000-k0 (antibody, human IgG1, kappa, L234A L235A, N297A)
heavy: QVQLVESGGGLVQPGRSLRLSCAASGFTFSNAWMHWVRQAPGKGLEWVAQIKGKSQNYATYYAESVKGRFTISRADSKNSIYLQMNSLKTEDTAVYYCRYVHYSASYGVDAWGQGTTVTVSSASTKGPSVFPLAPSSKSTSGGTAALGCLVKDYFPEPVTVSWNSGALTSGVHTFPAVLQSSGLYSLSSVVTVPSSSLGTQTYICNVNHKPSNTKVDKKVEPKSCDKTHTCPPCPAPEAAGGPSVFLFPPKPKDTLMISRTPEVTCVVVDVSHEDPEVKFNWYVDGVEVHNAKTKPREEQYASTYRVVSVLTVLHQDWLNGKEYKCKVSNKALPAPIEKTISKAKGQPREPQVYTLPPSRCELTKNQVSLSCAVKGFYPSDIAVEWESNGQPENNYKTTPPVLDSDGSFFLVSKLTVDKSRWQQGNVFSCSVMHEALHNHYTQKSLSLSPDYKDDDDK
chain: EPKSSDKTHTCPPCPAPELLGGPSVFLFPPKPKDTLMISRTPEVTCVVVDVSHEDPEVKFNWYVDGVEVHNAKTKPREEQYNSTYRVVSVLTVLHQDWLNGKEYKCKVSNKALPAPIEKTISKAKGQPREPQVCTLPPSRDELTKNQVSLWCLVKGFYPSDIAVEWESNGQPENNYKTTPPVLDSDGSFFLYSKLTVDKSRWQQGNVFSCSVMHEALHNRYTQKSLSLSP
light: DIVMTQSPLSLPVTPGEPASISCRSSQSLVHSNRNTYLHWYQQKPGQAPRLLIYKVSNRFSGVPDRFSGSGSGTDFTLKISRVEAEDVGVYYCGQGTQVPYTFGQGTKLEIKRTVAAPSVFIFPPSDEQLKSGTASVVCLLNNFYPREAKVQWKVDNALQSGNSQESVTEQDSKDSTYSLSSTLTLSKADYEKHKVYACEVTHQGLSSPVTKSFNRGEC
notes: one-arm antibody (single Fab) with Fab-less hinge-Fc chain Hi-Kn010G3
B2: TR01H035-E22Hh/none-Hi-Kn010G3/L0000-k0 (antibody, human IgG1, kappa, L234A L235A, N297A)
heavy: QVQLVESGGGLVQPGRSLRLSCAASGFTFSNAWMHWVRQAPGKGLEWVAQIKGKSQNYATYYAESVKGRFTISRADSKNSIYLQMNSLKTEDTAVYYCRYVHYSASYGVDYWGQGTTVTVSSASTKGPSVFPLAPSSKSTSGGTAALGCLVKDYFPEPVTVSWNSGALTSGVHTFPAVLQSSGLYSLSSVVTVPSSSLGTQTYICNVNHKPSNTKVDKKVEPKSCDKTHTCPPCPAPEAAGGPSVFLFPPKPKDTLMISRTPEVTCVVVDVSHEDPEVKFNWYVDGVEVHNAKTKPREEQYASTYRVVSVLTVLHQDWLNGKEYKCKVSNKALPAPIEKTISKAKGQPREPQVYTLPPSRCELTKNQVSLSCAVKGFYPSDIAVEWESNGQPENNYKTTPPVLDSDGSFFLVSKLTVDKSRWQQGNVFSCSVMHEALHNHYTQKSLSLSPDYKDDDDK
chain: EPKSSDKTHTCPPCPAPELLGGPSVFLFPPKPKDTLMISRTPEVTCVVVDVSHEDPEVKFNWYVDGVEVHNAKTKPREEQYNSTYRVVSVLTVLHQDWLNGKEYKCKVSNKALPAPIEKTISKAKGQPREPQVCTLPPSRDELTKNQVSLWCLVKGFYPSDIAVEWESNGQPENNYKTTPPVLDSDGSFFLYSKLTVDKSRWQQGNVFSCSVMHEALHNRYTQKSLSLSP
light: DIVMTQSPLSLPVTPGEPASISCRSSQSLVHSNRNTYLHWYQQKPGQAPRLLIYKVSNRFSGVPDRFSGSGSGTDFTLKISRVEAEDVGVYYCGQGTQVPYTFGQGTKLEIKRTVAAPSVFIFPPSDEQLKSGTASVVCLLNNFYPREAKVQWKVDNALQSGNSQESVTEQDSKDSTYSLSSTLTLSKADYEKHKVYACEVTHQGLSSPVTKSFNRGEC
notes: as for B1
B3: TR01H040-E22Hh/none-Hi-Kn010G3/L0226-k0 (antibody, human IgG1, kappa, L234A L235A, N297A)
heavy: QVQLVESGGGLVQPGRSLRLSCAASGFTFSNAWMHWVRQAPGKGLEWVAQIKDKSQNYATYYAESVKGRFTISRADSKNSIYLQMNSLKTEDTAVYYCRYVHYSASYGVDAWGQGTTVTVSSASTKGPSVFPLAPSSKSTSGGTAALGCLVKDYFPEPVTVSWNSGALTSGVHTFPAVLQSSGLYSLSSVVTVPSSSLGTQTYICNVNHKPSNTKVDKKVEPKSCDKTHTCPPCPAPEAAGGPSVFLFPPKPKDTLMISRTPEVTCVVVDVSHEDPEVKFNWYVDGVEVHNAKTKPREEQYASTYRVVSVLTVLHQDWLNGKEYKCKVSNKALPAPIEKTISKAKGQPREPQVYTLPPSRCELTKNQVSLSCAVKGFYPSDIAVEWESNGQPENNYKTTPPVLDSDGSFFLVSKLTVDKSRWQQGNVFSCSVMHEALHNHYTQKSLSLSPDYKDDDDK
chain: EPKSSDKTHTCPPCPAPELLGGPSVFLFPPKPKDTLMISRTPEVTCVVVDVSHEDPEVKFNWYVDGVEVHNAKTKPREEQYNSTYRVVSVLTVLHQDWLNGKEYKCKVSNKALPAPIEKTISKAKGQPREPQVCTLPPSRDELTKNQVSLWCLVKGFYPSDIAVEWESNGQPENNYKTTPPVLDSDGSFFLYSKLTVDKSRWQQGNVFSCSVMHEALHNRYTQKSLSLSP
light: DIVMTQSPLSLPVTPGEPASISCRSSQSPVHSNRNTYIHWYQQKPGQAPRLLIYKVSNRFSGVPDRFSGSGSGTDFTLKISRVEAEDVGVYYCIQGTQVPYTFGQGTKLEIKRTVAAPSVFIFPPSDEQLKSGTASVVCLLNNFYPREAKVQWKVDNALQSGNSQESVTEQDSKDSTYSLSSTLTLSKADYEKHKVYACEVTHQGLSSPVTKSFNRGEC
notes: as for B1
B4: TR01H040-E22Hh/none-Hi-Kn010G3/L0227-k0 (antibody, human IgG1, kappa, L234A L235A, N297A)
heavy: QVQLVESGGGLVQPGRSLRLSCAASGFTFSNAWMHWVRQAPGKGLEWVAQIKDKSQNYATYYAESVKGRFTISRADSKNSIYLQMNSLKTEDTAVYYCRYVHYSASYGVDAWGQGTTVTVSSASTKGPSVFPLAPSSKSTSGGTAALGCLVKDYFPEPVTVSWNSGALTSGVHTFPAVLQSSGLYSLSSVVTVPSSSLGTQTYICNVNHKPSNTKVDKKVEPKSCDKTHTCPPCPAPEAAGGPSVFLFPPKPKDTLMISRTPEVTCVVVDVSHEDPEVKFNWYVDGVEVHNAKTKPREEQYASTYRVVSVLTVLHQDWLNGKEYKCKVSNKALPAPIEKTISKAKGQPREPQVYTLPPSRCELTKNQVSLSCAVKGFYPSDIAVEWESNGQPENNYKTTPPVLDSDGSFFLVSKLTVDKSRWQQGNVFSCSVMHEALHNHYTQKSLSLSPDYKDDDDK
chain: EPKSSDKTHTCPPCPAPELLGGPSVFLFPPKPKDTLMISRTPEVTCVVVDVSHEDPEVKFNWYVDGVEVHNAKTKPREEQYNSTYRVVSVLTVLHQDWLNGKEYKCKVSNKALPAPIEKTISKAKGQPREPQVCTLPPSRDELTKNQVSLWCLVKGFYPSDIAVEWESNGQPENNYKTTPPVLDSDGSFFLYSKLTVDKSRWQQGNVFSCSVMHEALHNRYTQKSLSLSP
light: DIVMTQSPLSLPVTPGEPASISCRSSQSPVHSNRNTYIHWYQQKPGQAPRLLIYKVSNRFSGVPDRFSGSGSGTDFTLKISRVEAEDVGVYYCLQGTQVPYTFGQGTKLEIKRTVAAPSVFIFPPSDEQLKSGTASVVCLLNNFYPREAKVQWKVDNALQSGNSQESVTEQDSKDSTYSLSSTLTLSKADYEKHKVYACEVTHQGLSSPVTKSFNRGEC
notes: as for B1
B5: TR01H040-E22Hh/none-Hi-Kn010G3/L0246-k0 (antibody, human IgG1, kappa, L234A L235A, N297A)
heavy: QVQLVESGGGLVQPGRSLRLSCAASGFTFSNAWMHWVRQAPGKGLEWVAQIKDKSQNYATYYAESVKGRFTISRADSKNSIYLQMNSLKTEDTAVYYCRYVHYSASYGVDAWGQGTTVTVSSASTKGPSVFPLAPSSKSTSGGTAALGCLVKDYFPEPVTVSWNSGALTSGVHTFPAVLQSSGLYSLSSVVTVPSSSLGTQTYICNVNHKPSNTKVDKKVEPKSCDKTHTCPPCPAPEAAGGPSVFLFPPKPKDTLMISRTPEVTCVVVDVSHEDPEVKFNWYVDGVEVHNAKTKPREEQYASTYRVVSVLTVLHQDWLNGKEYKCKVSNKALPAPIEKTISKAKGQPREPQVYTLPPSRCELTKNQVSLSCAVKGFYPSDIAVEWESNGQPENNYKTTPPVLDSDGSFFLVSKLTVDKSRWQQGNVFSCSVMHEALHNHYTQKSLSLSPDYKDDDDK
chain: EPKSSDKTHTCPPCPAPELLGGPSVFLFPPKPKDTLMISRTPEVTCVVVDVSHEDPEVKFNWYVDGVEVHNAKTKPREEQYNSTYRVVSVLTVLHQDWLNGKEYKCKVSNKALPAPIEKTISKAKGQPREPQVCTLPPSRDELTKNQVSLWCLVKGFYPSDIAVEWESNGQPENNYKTTPPVLDSDGSFFLYSKLTVDKSRWQQGNVFSCSVMHEALHNRYTQKSLSLSP
light: DIVMTQSPLSLPVTPGEPASISCRSSQSPVHSNRNTYIQWYQQKPGQAPRLLIYKVSNRFSGVPDRFSGSGSGTDFTLKISRVEAEDVGVYYCSQGTQVPYTFGQGTKLEIKRTVAAPSVFIFPPSDEQLKSGTASVVCLLNNFYPREAKVQWKVDNALQSGNSQESVTEQDSKDSTYSLSSTLTLSKADYEKHKVYACEVTHQGLSSPVTKSFNRGEC
notes: as for B1
B6: TR01H040-E22Hh/none-Hi-Kn010G3/L0247-k0 (antibody, human IgG1, kappa, L234A L235A, N297A)
heavy: QVQLVESGGGLVQPGRSLRLSCAASGFTFSNAWMHWVRQAPGKGLEWVAQIKDKSQNYATYYAESVKGRFTISRADSKNSIYLQMNSLKTEDTAVYYCRYVHYSASYGVDAWGQGTTVTVSSASTKGPSVFPLAPSSKSTSGGTAALGCLVKDYFPEPVTVSWNSGALTSGVHTFPAVLQSSGLYSLSSVVTVPSSSLGTQTYICNVNHKPSNTKVDKKVEPKSCDKTHTCPPCPAPEAAGGPSVFLFPPKPKDTLMISRTPEVTCVVVDVSHEDPEVKFNWYVDGVEVHNAKTKPREEQYASTYRVVSVLTVLHQDWLNGKEYKCKVSNKALPAPIEKTISKAKGQPREPQVYTLPPSRCELTKNQVSLSCAVKGFYPSDIAVEWESNGQPENNYKTTPPVLDSDGSFFLVSKLTVDKSRWQQGNVFSCSVMHEALHNHYTQKSLSLSPDYKDDDDK
chain: EPKSSDKTHTCPPCPAPELLGGPSVFLFPPKPKDTLMISRTPEVTCVVVDVSHEDPEVKFNWYVDGVEVHNAKTKPREEQYNSTYRVVSVLTVLHQDWLNGKEYKCKVSNKALPAPIEKTISKAKGQPREPQVCTLPPSRDELTKNQVSLWCLVKGFYPSDIAVEWESNGQPENNYKTTPPVLDSDGSFFLYSKLTVDKSRWQQGNVFSCSVMHEALHNRYTQKSLSLSP
light: DIVMTQSPLSLPVTPGEPASISCRSSQSPVHSNRNTYIQWYQQKPGQAPRLLIYKVSNRFSGVPDRFSGSGSGTDFTLKISRVEAEDVGVYYCIQGTQVPYTFGQGTKLEIKRTVAAPSVFIFPPSDEQLKSGTASVVCLLNNFYPREAKVQWKVDNALQSGNSQESVTEQDSKDSTYSLSSTLTLSKADYEKHKVYACEVTHQGLSSPVTKSFNRGEC
notes: as for B1

Each binder was assayed against T1, soluble human CD3ε chain (human, UniProt P07766 23-126, limits assumed) (assay: SPR (Biacore), soluble human CD3ε chain).
T1 construct: also called human CD3 epsilon chain
T1 sequence (P07766 23-126 limits assumed): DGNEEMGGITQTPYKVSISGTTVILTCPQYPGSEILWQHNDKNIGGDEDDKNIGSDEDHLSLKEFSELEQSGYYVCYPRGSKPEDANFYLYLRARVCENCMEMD
Work on B1 yielded a Kd of 91.1 nM.
For B2, the Kd was 84.9 nM.
Binder B3 has a Kd of 80.1 nM.
B4 gave a Kd of 101 nM.
With B5 the Kd was 92.8 nM.
B6 was tested, and the Kd was 100 nM.
